# Source: article PMC2797197
# B1: 41-bp dsDNA (dsDNA)
# DNA 1: CTCTCTTTGAGGACACCAACCTGGCGGCCATCCACGCCAAG
# DNA 2: CTTGGCGTGGATGGCCGCCAGGTTGGTGTCCTCAAAGAGAG
# Target: GST-NSD2-SET (Homo sapiens, UniProt O96028 941-1240)
# Experiment: EMSA
# Chain of GST-NSD2-SET (O96028 941-1240): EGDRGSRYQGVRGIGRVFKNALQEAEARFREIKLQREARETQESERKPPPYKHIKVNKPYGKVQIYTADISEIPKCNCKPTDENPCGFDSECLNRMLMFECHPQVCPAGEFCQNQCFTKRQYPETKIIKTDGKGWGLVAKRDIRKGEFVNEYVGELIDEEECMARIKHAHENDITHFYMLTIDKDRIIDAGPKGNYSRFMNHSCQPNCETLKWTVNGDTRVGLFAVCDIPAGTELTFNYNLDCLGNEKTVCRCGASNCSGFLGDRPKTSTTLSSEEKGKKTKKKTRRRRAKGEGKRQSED
binder,measurement,value
B1,binding result,binds
